Legend:
[1] = molecular target: T1, mouse vascular endothelial growth factor receptor-2 Fc chimera (Flk-1-Fc) (mouse, UniProt P35918 20-762); assay: radioactive equilibrium binding assay, 1 nM Flk-1-Fc, % of input bound
T1 construct: Bought from R&D Systems; also called mouse VEGFR-2; not shown: Fc part of the purchased chimera, not specified
Description: (§1) To prepare ³⁵S-labeled binding proteins for analysis, mRNA was prepared as described above for RNA-protein fusion production but the linker ligation step was omitted. The mRNA was expressed using rabbit reticulocyte lysate translation kit (Ambion) in the presence of ³⁵S-labeled Met at 30° C. for 1 hour. Expressed protein was purified on M2-agarose Flag beads (Sigma) as described above. This procedure produced the encoded protein without the nucleic acid tail. In a direct binding assay, VEGF-R2-Fc fusions in concentrations ranging from 0 to 200 nM were added to a constant concentration of the purified protein (0.2 or 0.5 nM) and incubated at 30° C. for 1 hour in buffer B. The receptor-binder complexes were captured using Protein A magnetic beads for another 10 minutes at room temperature using a Kingfisher™ The beads were washed with six reaction volumes of buffer B. The protein was eluted from the beads with 100 μL of 0.1 M KOH. […] of the reaction mixture and elution were dried onto a LumaPlate-96 (Packard) and the amount of ³⁵S on the plate was measured using a TopCount NXT instrument (Packard). The amount of fibronectin-based scaffold protein bound to the target was estimated as a percent of radioactivity eluted from Protein A magnetic beads compare to radioactivity in the reaction mixture. Nonspecific binding of fibronectin-based scaffold proteins to the beads was determined by measuring binding in the absence of KDR-Fc and represented less than 1-2% of the input. Specific binding was obtained through subtraction of nonspecific binding from total binding. Data was analyzed using the GraphPad Prizm software (GraphPad Software, Inc, San Diego, Calif.), fitted using a one site, non-linear binding equation.

[2] = molecular target: T2, human vascular endothelial growth factor receptor-2 Fc chimera (KDR-Fc) (human, UniProt P35968 20-764); assay: radioactive equilibrium binding assay, 1 nM KDR-Fc, % of input bound
T2 construct: range 1-764; also called human VEGFR-2; not shown: human IgG1 Fc
T2 sequence (P35968 20-764 limits assumed, change not shown, form in doubt): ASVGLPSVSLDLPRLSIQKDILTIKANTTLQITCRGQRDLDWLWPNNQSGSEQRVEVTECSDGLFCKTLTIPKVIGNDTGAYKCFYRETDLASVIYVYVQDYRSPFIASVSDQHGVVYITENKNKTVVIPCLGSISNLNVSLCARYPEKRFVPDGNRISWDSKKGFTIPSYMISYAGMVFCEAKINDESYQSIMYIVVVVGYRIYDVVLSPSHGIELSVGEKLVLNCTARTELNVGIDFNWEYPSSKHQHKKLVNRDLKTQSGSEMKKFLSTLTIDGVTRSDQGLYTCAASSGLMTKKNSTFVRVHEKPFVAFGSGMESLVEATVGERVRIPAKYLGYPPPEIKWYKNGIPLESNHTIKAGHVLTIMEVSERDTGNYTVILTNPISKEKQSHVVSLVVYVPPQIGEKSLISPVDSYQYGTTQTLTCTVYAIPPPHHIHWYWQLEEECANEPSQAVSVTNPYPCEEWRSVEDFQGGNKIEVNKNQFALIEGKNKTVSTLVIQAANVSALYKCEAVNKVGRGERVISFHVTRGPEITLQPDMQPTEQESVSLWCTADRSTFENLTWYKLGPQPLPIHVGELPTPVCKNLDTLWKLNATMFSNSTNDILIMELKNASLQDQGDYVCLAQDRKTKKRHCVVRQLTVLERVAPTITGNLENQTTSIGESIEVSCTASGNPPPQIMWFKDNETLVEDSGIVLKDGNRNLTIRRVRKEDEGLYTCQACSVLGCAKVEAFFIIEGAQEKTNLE
Description: as §1

T1 sequence (P35918 20-762, change not shown): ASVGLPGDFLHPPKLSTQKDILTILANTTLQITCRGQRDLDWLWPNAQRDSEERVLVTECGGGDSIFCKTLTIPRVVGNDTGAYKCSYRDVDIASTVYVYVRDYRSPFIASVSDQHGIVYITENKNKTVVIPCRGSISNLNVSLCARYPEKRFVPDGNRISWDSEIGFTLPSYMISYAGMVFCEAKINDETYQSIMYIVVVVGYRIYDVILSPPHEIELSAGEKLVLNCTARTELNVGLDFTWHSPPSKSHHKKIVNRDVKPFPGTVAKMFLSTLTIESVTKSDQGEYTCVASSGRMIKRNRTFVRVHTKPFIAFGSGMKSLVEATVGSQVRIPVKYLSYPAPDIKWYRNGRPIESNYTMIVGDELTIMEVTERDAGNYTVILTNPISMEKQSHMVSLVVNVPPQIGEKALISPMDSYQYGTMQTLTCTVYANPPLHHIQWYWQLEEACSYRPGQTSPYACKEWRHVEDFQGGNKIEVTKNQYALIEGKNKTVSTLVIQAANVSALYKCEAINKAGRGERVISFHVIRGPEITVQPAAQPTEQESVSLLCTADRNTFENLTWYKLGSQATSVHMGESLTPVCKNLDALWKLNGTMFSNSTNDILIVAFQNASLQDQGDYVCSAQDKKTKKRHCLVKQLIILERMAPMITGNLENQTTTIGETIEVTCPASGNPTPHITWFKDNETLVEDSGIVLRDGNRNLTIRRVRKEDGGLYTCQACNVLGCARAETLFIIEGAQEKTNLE

Binding to 1 nM Flk-1, % [1] [%]	Binding to 1 nM KDR, % [2] [%]	Binder
1	47	E21 (designed binder, 10Fn3 clone, Del 1-8) EVVAATPTSLLISWRHPHFPTRYYRITYGETGGNSPVQEFTVPLQPPTATISGLKPGVDYTITGYAVTWGYKDHELLIPISINYRT
1	29	F10 (designed binder, 10Fn3 clone, Del 1-8) EVVAATPTSLLISWRHPHFPTRYYRITYGETGGNSPVQEFTVPLQPPTATISGLKPGVDYTITGYAVTMAPNGRELLTPISINYRT
41	26	EGE4 (designed binder, 10Fn3 clone, Del 1-8) EVVAATPTSLLISWRHPHFPTRYYRITYGETGGNSPVQEFTVPLQPPTATISGLKPGVDYTITGYAVTVERNGRVLNTPISINYRT
9	37	E27 (designed binder, 10Fn3 clone, Del 1-8) EVVAATPTSLLISWRHPHFPTRYYRITYGETGGNSPVQEFTVPLQPPTATISGLKPGVDYTITGYAVTVERNGHTLMTPISINYRT
38	34	EGE3 (designed binder, 10Fn3 clone, Del 1-8) EVVAATPTSLLISWRHPHFPTRYYRITYGETGGNSPVQEFTVPLQPPTATISGLKPGVDYTITGYAVTVERNGRQLYTPISINYRT
13	33	F8 (designed binder, 10Fn3 clone, Del 1-8) EVVAATPTSLLISWRHPHFPTRYYRITYGETGGNSPVQEFTVPLQPPTATISGLKPGVDYTITGYAVTVEHNGRTSFTPISINYRT
40	33	EGE6 (designed binder, 10Fn3 clone, Del 1-8) EVVAATPTSLLISWRHPHFPTRYYRITYGETGGNSPVQEFTVPLQPPTATISGLKPGVDYTITGYAVTLERNGRLLNTPISINYRT
8	12	FE (designed binder) EVVAATPTSLLISWRHPHFPTRYYRITYGETGGNSPVQEFTVPLQPPTATISGLKPGVDYTITGYAVTVERDGRELNIPISINYRT
7	30	F7 (designed binder, 10Fn3 clone, Del 1-8) EVVAATPTSLLISWRHPHFPTRYYRITYGETGGNSPVQEFTVPLQPPTATISGLKPGVDYTITGYAVTVEHNGRVLNIPISINYRT
33	42	EGE2 (designed binder, 10Fn3 clone, Del 1-8) EVVAATPTSLLISWRHPHFPTRYYRITYGETGGNSPVQEFTVPLQPPTATISGLKPGVDYTITGYAVTVERNGRQLMTPISINYRT
47	32	EGE5 (designed binder, 10Fn3 clone, Del 1-8) EVVAATPTSLLISWRHPHFPTRYYRITYGETGGNSPVQEFTVPLQPPTATISGLKPGVDYTITGYAVTLERNGRVLNTPISINYRT
1	32	EGE11 (SEQ ID NO 87) (designed binder) EVVAATPTSLLISWRHPHFPTRYYRITYGETGGNSPVQEFTVPLQPPTATISGLKPGVDYTITGYAVTMGKNDRELLTPISINYRT
0	50	EGE11 (SEQ ID NO 72) (designed binder) EVVAATPTSLLISWRHPHFPTRYYRITYGETGGNSPVQEFTVPLQPPTATISGLKPGVDYTITGYAVTFGWNDRELLIPISINYRT
23	32	F9 (designed binder, 10Fn3 clone, Del 1-8) EVVAATPTSLLISWRHPHFPTRYYRITYGETGGNSPVQEFTVPLQPPTATISGLKPGVDYTITGYAVTVEPNGRVLNTPISINYRT
29	30	EGE1 (designed binder, 10Fn3 clone, Del 1-8) EVVAATPTSLLISWRHPHFPTRYYRITYGETGGNSPVQEFTVPLQPPTATISGLKPGVDYTITGYAVTLERNGRKLMTPISINYRT
8	20	F11 (designed binder, 10Fn3 clone, Del 1-8) EVVAATPTSLLISWRHPHFPTRYYRITYGETGGNSPVQEFTVPLQPPTATISGLKPGVDYTITGYAVTVEQNGRVLNTPISINYRT
3	45	E22 (designed binder, 10Fn3 clone, Del 1-8) EVVAATPTSLLISWRHPHFPTRYYRITYGETGGNSPVQEFTVPLQPPTATISGLKPGVDYTITGYAVTLGRNDRELLTPISINYRT
2	37	F6 (designed binder, 10Fn3 clone, Del 1-8) EVVAATPTSLLISWRHPHFPTRYYRITYGETGGNSPVQEFTVPLQPPTATISGLKPGVDYTITGYAVTVEQNGRVLMTPISINYRT
1	32	EGE9 (designed binder, 10Fn3 clone, Del 1-8) EVVAATPTSLLISWRHPHFPTRYYRITYGETGGNSPVQEFTVPLQPPTATISGLKPGVDYTITGYAVTFGPNDRELLTPISINYRT
2	18	F1 (designed binder, 10Fn3 clone, Del 1-8) EVVAATPTSLLISWRHPHFPTRYYRITYGETGGNSPVQEFTVPLQPPTATISGLKPGVDYTITGYAVTSGRNDRELLVPISINYRT
15	27	F3 (designed binder, 10Fn3 clone, Del 1-8) EVVAATPTSLLISWRHPHFPTRYYRITYGETGGNSPVQEFTVPLQPPTATISGLKPGVDYTITGYAVTVERDGRKLYTPISINYRT
30	31	EGE7 (designed binder, 10Fn3 clone, Del 1-8) EVVAATPTSLLISWRHPHFPTRYYRITYGETGGNSPVQEFTVPLQPPTATISGLKPGVDYTITGYAVTLERNDRVLLTPISINYRT
20	26	EGE8 (designed binder, 10Fn3 clone, Del 1-8) EVVAATPTSLLISWRHPHFPTRYYRITYGETGGNSPVQEFTVPLQPPTATISGLKPGVDYTITGYAVTVERNERVLMTPISINYRT
29	24	E24 (designed binder, 10Fn3 clone, Del 1-8) EVVAATPTSLLISWRHPHFPTRYYRITYGETGGNSPVQEFTVPLQPPTATISGLKPGVDYTITGYAVTVERNDRVLFTPISINYRT
18	31	F4 (designed binder, 10Fn3 clone, Del 1-8) EVVAATPTSLLISWRHPHFPTRYYRITYGETGGNSPVQEFTVPLQPPTATISGLKPGVDYTITGYAVTVERDGRTLRTPISINYRT
1	37	EGE10 (designed binder, 10Fn3 clone, Del 1-8) EVVAATPTSLLISWRHPHFPTRYYRITYGETGGNSPVQEFTVPLQPPTATISGLKPGVDYTITGYAVTMGPNDRELLTPISINYRT

Source: US20140179896A1 (published 2014)
